In EP4755449A2 (CHUGAI SEIYAKU KABUSHIKI KAISHA, dated 2026):

T1: human latent myostatin (human, UniProt O14793 25-266; O14793 267-375)
T1 construct: non-covalent complex of two propeptides and the mature homodimer; also called human myostatin latent form
T1 sequence 1: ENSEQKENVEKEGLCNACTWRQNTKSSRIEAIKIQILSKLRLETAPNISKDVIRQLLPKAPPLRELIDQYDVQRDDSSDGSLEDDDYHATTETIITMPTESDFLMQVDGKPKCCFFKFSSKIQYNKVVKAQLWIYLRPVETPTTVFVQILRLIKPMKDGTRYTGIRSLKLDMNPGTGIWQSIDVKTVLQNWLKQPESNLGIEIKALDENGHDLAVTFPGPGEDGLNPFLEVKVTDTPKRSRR
T1 sequence 2: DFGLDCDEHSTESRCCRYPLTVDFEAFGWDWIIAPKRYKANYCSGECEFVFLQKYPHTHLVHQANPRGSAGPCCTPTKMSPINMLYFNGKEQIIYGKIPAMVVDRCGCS

T2: mouse latent myostatin (mouse, UniProt O08689 26-267; O08689 268-376)
T2 sequence 1: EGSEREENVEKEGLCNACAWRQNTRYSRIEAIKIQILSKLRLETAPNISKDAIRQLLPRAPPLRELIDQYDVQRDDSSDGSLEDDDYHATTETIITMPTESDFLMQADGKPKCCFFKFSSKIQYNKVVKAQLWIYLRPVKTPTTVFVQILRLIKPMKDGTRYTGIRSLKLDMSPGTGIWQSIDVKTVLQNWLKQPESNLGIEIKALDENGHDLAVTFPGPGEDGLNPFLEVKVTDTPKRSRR
T2 sequence 2: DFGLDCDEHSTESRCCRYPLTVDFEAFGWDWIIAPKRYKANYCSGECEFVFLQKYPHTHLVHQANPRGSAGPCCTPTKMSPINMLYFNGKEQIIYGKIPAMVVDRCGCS

T3: cynomolgus monkey latent myostatin (cynomolgus monkey, UniProt Q95J86 25-266; Q95J86 267-375, limits assumed)
T3 construct: also called cyno latent myostatin
T3 sequence 1: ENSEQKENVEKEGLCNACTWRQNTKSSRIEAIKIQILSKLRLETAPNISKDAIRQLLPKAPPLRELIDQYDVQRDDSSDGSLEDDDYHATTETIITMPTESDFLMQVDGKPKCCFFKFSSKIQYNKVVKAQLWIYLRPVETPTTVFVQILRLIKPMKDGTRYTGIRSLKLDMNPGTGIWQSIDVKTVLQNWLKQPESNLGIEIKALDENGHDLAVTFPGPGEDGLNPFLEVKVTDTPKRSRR
T3 sequence 2: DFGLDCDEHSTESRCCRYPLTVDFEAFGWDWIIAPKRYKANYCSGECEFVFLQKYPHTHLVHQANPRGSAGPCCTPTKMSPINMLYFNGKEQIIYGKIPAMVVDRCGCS

T4: human Fc gamma RIIb extracellular domain, His-tagged (human, UniProt P31994 43-217)
T4 construct: also called FcgRIIb
T4 sequence: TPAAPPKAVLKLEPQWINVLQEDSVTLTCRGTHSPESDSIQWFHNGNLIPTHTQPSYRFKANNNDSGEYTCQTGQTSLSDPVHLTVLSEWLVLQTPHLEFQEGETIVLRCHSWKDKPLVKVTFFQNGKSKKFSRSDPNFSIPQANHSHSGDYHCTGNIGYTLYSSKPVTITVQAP


Key:
[1] = target: T5, human Fc gamma RIIIaV extracellular domain, His-tagged (human, UniProt P08637 17-208); assay: SPR 25C
T5 construct: also called FcgRIIIaV
T5 sequence (P08637 17-208 F176V): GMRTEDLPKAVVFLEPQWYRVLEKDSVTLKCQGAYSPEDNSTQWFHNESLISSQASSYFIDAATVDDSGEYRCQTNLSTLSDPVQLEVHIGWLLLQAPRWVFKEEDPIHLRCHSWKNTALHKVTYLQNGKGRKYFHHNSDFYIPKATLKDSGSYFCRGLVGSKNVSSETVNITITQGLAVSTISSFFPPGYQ

human latent myostatin [2] = target: T1, human latent myostatin; assay: SPR, dissociation phase at pH5.8
human latent myostatin [3] = target: T1, human latent myostatin; assay: SPR 37C
mouse latent myostatin [4] = target: T2, mouse latent myostatin; assay: SPR 37C
[5] = target: T3, cynomolgus monkey latent myostatin; assay: SPR 37C
human latent myostatin [6] = target: T1, human latent myostatin; assay: SPR 37C pH5.8; pH 5.8
mouse latent myostatin [7] = target: T2, mouse latent myostatin; assay: SPR 37C pH5.8; pH 5.8
[8] = target: T3, cynomolgus monkey latent myostatin; assay: SPR 37C pH5.8; pH 5.8
human latent myostatin [9] = target: T1, human latent myostatin; assay: SPR 37C pH7.4; pH 7.4
mouse latent myostatin [10] = target: T2, mouse latent myostatin; assay: SPR 37C pH7.4; pH 7.4
[11] = target: T3, cynomolgus monkey latent myostatin; assay: SPR 37C pH7.4; pH 7.4
[12] = target: T4, human Fc gamma RIIb extracellular …; assay: SPR 25C, antigen-antibody complex injected over captured His-tagged receptor

koff (human latent myostatin [2]) [s⁻¹] | ratio of KD at pH 5.8/pH7.4 (human latent myostatin [3]) | ratio of KD at pH 5.8/pH7.4 (mouse latent myostatin [4]) | ratio of KD at pH 5.8/pH7.4 [5] | Kd (human latent myostatin [6]) [nM] | Kd (mouse latent myostatin [7]) [nM] | Kd [8] [nM] | Kd (human latent myostatin [9]) [nM] | Kd (mouse latent myostatin [10]) [nM] | Kd [11] [nM] | Binder | other results
– | – | – | – | – | – | – | – | – | – | GpH7-B3 G237Y/GpL16-k0 (antibody, human IgG1, kappa, copies: 2 + 2) heavy: not shown light: DIVMTQSPLSLPVTPGEPASISCQASESLVHSNRNTYLHWYLQKPGQSPQLLIYKVSNRFSGVPDRFSGSGSGTDFTLKISRVEAEDVGVYYCSQNTHVPPTFGQGTKVEIERTVAAPSVFIFPPSDEQLKSGTASVVCLLNNFYPREAKVQWKVDNALQSGNSQESVTEQDSKDSTYSLSSTLTLSKADYEKHKVYACEVTHQGLSSPVTKSFNRGEC | relative binding [1]: 0 parent B3=100
– | – | – | – | – | – | – | – | – | – | GpH7-B3 N325L/GpL16-k0 (antibody, human IgG1, kappa, copies: 2 + 2) heavy: not shown light: DIVMTQSPLSLPVTPGEPASISCQASESLVHSNRNTYLHWYLQKPGQSPQLLIYKVSNRFSGVPDRFSGSGSGTDFTLKISRVEAEDVGVYYCSQNTHVPPTFGQGTKVEIERTVAAPSVFIFPPSDEQLKSGTASVVCLLNNFYPREAKVQWKVDNALQSGNSQESVTEQDSKDSTYSLSSTLTLSKADYEKHKVYACEVTHQGLSSPVTKSFNRGEC | relative binding [1]: 0 parent B3=100
0.00088 | – | – | – | – | – | – | – | – | – | Ab003 (M103205H009/M103202L000) (antibody, V domains shown, variant of MS1032LO00-SG1) VH: QVTLKESGPVLVKPTETLTLTCTVSGIDLSSYDISWVRQAPGKGLEWVGIISHAGSTYYASWAKGRLTISKDTSKNQVVLTMTNMDPVDTATYYCARGVPAYSTGGDLWGQGTLVTVSS VL: DIVMTQSPATLSLSPGERATLSCQSSQSVYDNNWLSWFQQKPGQPPKLLIYWASTLASGVPSRFSGSGSGTDFTLTISSLQPEDAATYYCAGGYGGGLYAFGQGTKVEIKR | –
– | 92 | 38 | 41 | 25.5 | 9.88 | 14.1 | 0.276 | 0.259 | 0.34 | MS_M103240H1246-SG1/M103202L1045-SK1 (antibody, human IgG1, kappa, V domains shown, also called MS1032LO25-SG1) VH: QVQLVESGGGLVQPGGSLRLSCAVSGIDLSHEDISWVRQAPGKGLEWVSIISYAGSKYYASWAKGRLTISKDTSKNQVVLTMTNMDPVDTATYYCARGVPAYSHGGDLWGQGTLVTVSS VL: DIVMTQSPATLSLSPGERATLSCTTSQSVYHENWLSWFQQKPGQPPKLLIYWASTLAYGVPSRFSGSGSGTDFTLTISSLQPEDAATYYCAGGYGGGRYAFGQGTKVEIKR | –
– | 209 | 60 | 73 | 84.9 | 24.8 | 35.8 | 0.407 | 0.413 | 0.492 | MS_M103205H1057-SG1/M103202L889-SK1 (antibody, human IgG1, kappa, V domains shown, also called MS1032LO12-SG1) VH: QVTLKESGPVLVKPTETLTLTCTVSGIDLSHTDISWVRQAPGKGLEWVGIISYAGSKYKASWAKGRLTISKDTSKNQVVLTMTNMDPVDTATYYCARGVPAYSHGGDLWGQGTLVTVSS VL: DIVMTQSPATLSLSPGERATLSCTSSQSVYHANWLSWFQQKPGQPPKLLIYWASTLAYGVPSRFSGSGSGTDFTLTISSLQPEDAATYYCAGGYGGGRYAFGQGTKVEIKR | –
– | 62 | 24 | 26 | 16.1 | 6.4 | 7.71 | 0.26 | 0.266 | 0.299 | MS_M103245H1233-SG1/M103202L1045-SK1 (antibody, human IgG1, kappa, V domains shown, also called MS1032LO23-SG1) VH: QVTLKESGPVLVKPTETLTLTCKVSGIDLSHEDISWVRQAPGKGLEWVSIISYAGSTYYASWAKGRLTISKDTSKNQVVLTMTNMDPVDTATYYCARGVPAYSHGGDLWGQGTLVTVSS VL: DIVMTQSPATLSLSPGERATLSCTTSQSVYHENWLSWFQQKPGQPPKLLIYWASTLAYGVPSRFSGSGSGTDFTLTISSLQPEDAATYYCAGGYGGGRYAFGQGTKVEIKR | –
– | 204 | 113 | 100 | 52.3 | 29.4 | 31 | 0.257 | 0.261 | 0.309 | MS_M103245H795-SG1/M103202L1045-SK1 (antibody, human IgG1, kappa, V domains shown, also called MS1032LO21-SG1) VH: QVTLKESGPVLVKPTETLTLTCKVSGIDLSHDDISWVRQAPGKGLEWVSIISYAGSTYYASWAKGRLTISKDTSKNQVVLTMTNMDPVDTATYYCARGVPAYSHGGDLWGQGTLVTVSS VL: DIVMTQSPATLSLSPGERATLSCTTSQSVYHENWLSWFQQKPGQPPKLLIYWASTLAYGVPSRFSGSGSGTDFTLTISSLQPEDAATYYCAGGYGGGRYAFGQGTKVEIKR | –
7.63e-05 | – | – | – | – | – | – | – | – | – | Ab005 (M103205H028/M103202L000) (antibody, V domains shown, variant of MS1032LO00-SG1) VH: QVTLKESGPVLVKPTETLTLTCTVSGIDLSSYDISWVRQAPGKGLEWVGIISYAGSTYYASWAKGRLTISKDTSKNQVVLTMTNMDPVDTATYYCARGVPAYSHGGDLWGQGTLVTVSS VL: DIVMTQSPATLSLSPGERATLSCQSSQSVYDNNWLSWFQQKPGQPPKLLIYWASTLASGVPSRFSGSGSGTDFTLTISSLQPEDAATYYCAGGYGGGLYAFGQGTKVEIKR | –
0.000186 | – | – | – | – | – | – | – | – | – | Ab004 (M103205H026/M103202L000) (antibody, V domains shown, variant of MS1032LO00-SG1) VH: QVTLKESGPVLVKPTETLTLTCTVSGIDLSSYDISWVRQAPGKGLEWVGIISYAGSTYYASWAKGRLTISKDTSKNQVVLTMTNMDPVDTATYYCARGVPAHSTGGDLWGQGTLVTVSS VL: DIVMTQSPATLSLSPGERATLSCQSSQSVYDNNWLSWFQQKPGQPPKLLIYWASTLASGVPSRFSGSGSGTDFTLTISSLQPEDAATYYCAGGYGGGLYAFGQGTKVEIKR | –
8.58e-05 | – | – | – | – | – | – | – | – | – | Ab006 (M103205H000/M103202L008) (antibody, V domains shown, variant of MS1032LO00-SG1) VH: QVTLKESGPVLVKPTETLTLTCTVSGIDLSSYDISWVRQAPGKGLEWVGIISYAGSTYYASWAKGRLTISKDTSKNQVVLTMTNMDPVDTATYYCARGVPAYSTGGDLWGQGTLVTVSS VL: DIVMTQSPATLSLSPGERATLSCQSSQSVYHNNWLSWFQQKPGQPPKLLIYWASTLASGVPSRFSGSGSGTDFTLTISSLQPEDAATYYCAGGYGGGLYAFGQGTKVEIKR | –
0.000415 | – | – | – | – | – | – | – | – | – | Ab007 (M103205H028/M103202L008) (antibody, V domains shown, variant of MS1032LO00-SG1) VH: QVTLKESGPVLVKPTETLTLTCTVSGIDLSSYDISWVRQAPGKGLEWVGIISYAGSTYYASWAKGRLTISKDTSKNQVVLTMTNMDPVDTATYYCARGVPAYSHGGDLWGQGTLVTVSS VL: DIVMTQSPATLSLSPGERATLSCQSSQSVYHNNWLSWFQQKPGQPPKLLIYWASTLASGVPSRFSGSGSGTDFTLTISSLQPEDAATYYCAGGYGGGLYAFGQGTKVEIKR | –
– | 168 | 106 | 109 | 45.8 | 28.7 | 35.6 | 0.273 | 0.271 | 0.326 | MS_M103240H795-SG1/M103202L1045-SK1 (antibody, human IgG1, kappa, also called MS1032LO19-SG1) heavy: not shown light: DIVMTQSPATLSLSPGERATLSCTTSQSVYHENWLSWFQQKPGQPPKLLIYWASTLAYGVPSRFSGSGSGTDFTLTISSLQPEDAATYYCAGGYGGGRYAFGQGTKVEIKRTVAAPSVFIFPPSDEQLKSGTASVVCLLNNFYPREAKVQWKVDNALQSGNSQESVTEQDSKDSTYSLSSTLTLSKADYEKHKVYACEVTHQGLSSPVTKSFNRGEC | –
– | – | – | – | – | – | – | – | – | – | MS1032LO06-P1499m (antibody, human IgG1, kappa) heavy: not shown light: DIVMTQSPATLSLSPGERATLSCTSSQSVYHANWLSWFQQKPGQPPKLLIYWASTLAYGVPSRFSGSGSGTDFTLTISSLQPEDAATYYCAGGYGGGRYAFGQGTKVEIKRTVAAPSVFIFPPSDEQLKSGTASVVCLLNNFYPREAKVQWKVDNALQSGNSQESVTEQDSKDSTYSLSSTLTLSKADYEKHKVYACEVTHQGLSSPVTKSFNRGEC | binding result [12]: binds
